According to the nanobody polyreactivity screen of Harvey et al. (2022):

Experiment: yeast display, Sf9 membrane polyspecificity reagent, FACS + sequencing; frameworks hold sequencing errors
Outline: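 Using colony PCR, genes from sorted yeast display clones were amplified, then sequenced on MiSeq at 2 × 250 and filtered by CDR length. The clones had been stained with 10% biotinylated, detergent-solubilized Sf9 membrane reagent for 1 hour at 4 °C and sorted by FACS into low and high (top ~1%) gates on anti-HA and streptavidin fluorescence. Polyreactivity labels come from the gate of origin.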

Sequence: QVQLVESGGGLVQAGGSLRLSCAASGLTFYQNAMGWYRPAPGTERELVAGISSVGSTKYADSVKGRFTISRDNAKNTVYLQMNSLKPEDTAVYYCAPRFYAFRKGYYYWGQGTQVTVSS
- polyreactivity (PSR sort gate): high polyreactivity

Sequence: QVQLVESGGGLVQAGGSLRLSCAASGLTFYSYAMGWYRQAPGKERELVAAISKRGTNTFYADSAKGRFTISRDNAKNTVYLQMNSLKPEDTAVYYCAVDLSDSDYYWGQGTQVTVSS
- polyreactivity (PSR sort gate): low polyreactivity

Sequence: QVQLVESGGGLVQAGGSLRLSCAASGLTFYSYAMGWYRQAPGKERELVAAITISGGSTYADSVKGRFTISRDNAKNTVYLQMNSLKPEDTAVYYCAVDDFRNPDYDSWGQGTQVTVSS
- polyreactivity (PSR sort gate): low polyreactivity

Sequence: QVQLVESGGGLVQAGGSLRLSCAASGLTFYSYAMGWYRQAPGKERELVATIRWSGGSTYYADSVKGRFTISRDNAKNTVYLQMNSLKPEDTAVYFCAADRRINYDGLDMDYWGQGTQVTVSS
- polyreactivity (PSR sort gate): low polyreactivity

Sequence: QVQLVESGGGLVQAGGSLRLSCAASGLTFYTYAMGWYRQAPGKERELVAAISSGGSTNYADSVKGRFTISRDNAKNTVYLQMNSLKPEDTAVYYCASGGQYYIIRYDYWGQGTQVTVSS
- polyreactivity (PSR sort gate): low polyreactivity

Sequence: QVQLVESGGGLVQAGGSLRLSCAASGLTFYWYAMGWYRQAPGKERELVAAITSTGSTYYADSVKGRFTISRDNAKNTVYLQMNSLKPEDTAVYYCNADFPANWGWDYDYWGQGTQVTVSS
- polyreactivity (PSR sort gate): low polyreactivity

Sequence: QVQLVESGGGLVQAGGSLRLSCAASGLTFYYNAMGWYRQAPGKERELVAVIRGSGGSTYYADSVKGRFTISRDNAKNTVYLQMNSLKPEDTAVYYCAARVAASRRYYYWGQGTQVTVSS
- polyreactivity (PSR sort gate): high polyreactivity

Sequence: QVQLVESGGGLVQAGGSLRLSCAASGLTFYYYAMGWYRQAPGKERELVADISYSGGSTYYADSVKGRFTISRDNAKNTVYLQMNSLKPEDTAVYYCAAEGGYTISGSYDYWGQVTQVTVSS
- polyreactivity (PSR sort gate): low polyreactivity

Sequence: QVQLVESGGGLVQAGGSLRLSCAASGLTFYYYAMGWYRQAPGKERELVARISSGTSTYYADSVKGRFTISRDNAKNTVYLQMNCMKPEDTAVYYCTARRKLGSTHGPWGGLEYWGEGTQVTVSS
- polyreactivity (PSR sort gate): low polyreactivity

Sequence: QVQLVESGGGLVQAGGSLRLSCAASGLTFYYYAMGWYRQAPGKERQLVAAISRSGGSTYYADSVKGRFTISRDNAKNTVYLQMNSLKPEDTAVYYCAAREPYEGQRYYYEYYYWGQGTQVTVSS
- polyreactivity (PSR sort gate): high polyreactivity

Sequence: QVQLVESGGGLVQAGGSLRLSCAASGLTIFVNAMGWYRQAPGKERELVATISGGGSTYYADSVKGRFTISRDNAKNTVYLQMNSLKPEDTAVYYCNAADVGGPWWYPYTYNYWGQGTQVTVSS
- polyreactivity (PSR sort gate): low polyreactivity

Sequence: QVQLVESGGGLVQAGGSLRLSCAASGLTIGSNVMGWYRQAPGKERELVAAISQSGGRTYYADSVKGRFTISRDNAKNTVYLQMNSLKQEDTAVYYCAKRLRSFYGRPMGDYWGQGTQVTVSS
- polyreactivity (PSR sort gate): high polyreactivity

Sequence: QVQLVESGGGLVQAGGSLRLSCAASGLTIRNYAMGWYRQAPGKERELVAAITVSGGSTYYADSVKGRFTISRDNAKNTVYLQMNSLKPEDTAVYYSSARVIHTTYSRNYYYWGQGTQVTVSS
- polyreactivity (PSR sort gate): high polyreactivity

Sequence: QVQLVESGGGLVQAGGSLRLSCAASGLTIVWYGMVWYRQAPGKERELVAAITRGGSTYYADSVKGRFTISRDNAKNTVYLQMNSLKPEDTAVYYCAATSTYRARFEYWGQGTQVTVSS
- polyreactivity (PSR sort gate): high polyreactivity

Sequence: QVQLVESGGGLVQAGGSLRLSCAASGLTIWRYALGWYRQAPGKEREFVATISQNGGRTYYADSVKGRFTISRDNAKNTVYVQMNSLKPEDTAVYYCADDDWRWGYDYWGQGTQVTVSS
- polyreactivity (PSR sort gate): high polyreactivity

Sequence: QVQLVESGGGLVQAGGSLRLSCAASGLTIYHYSMGCYRQAPGKERELGAAISGNGVSTYYADSVKGRFTISRDNAKNTVYLQMNSLNPEDTAVYYCNVVFRFNSFDFYYWGLGTQVTVSS
- polyreactivity (PSR sort gate): high polyreactivity

Sequence: QVQLVESGGGLVQAGGSLRLSCAASGLTIYPNAMGWYRQAPGKERELVAAITYSGDTYYADSVKGRFTISRDNAKNTVYLQMNSLKPEDTAVYYCATDVDWAYGYQYEYWGQGTQVTVSS
- polyreactivity (PSR sort gate): low polyreactivity

Sequence: QVQLVESGGGLVQAGGSLRLSCAASGLTLDPYAMGWSRQAPGKERELVAAISWSGGGTTYADSVKGRFTISRDNAMNTVYLQMNSLKPEDTAVYYCAAAAPHLSAKMDYWGQGTQVTVSS
- polyreactivity (PSR sort gate): low polyreactivity

Sequence: QVQLVESGGGLVQAGGSLRLSCAASGLTLFYYVMGWYRQAPGKERELVAANTTSGGRTYYADSVKGRFTISRDNAKHTVYLQMNSLKPEDTAVYYCAAQSSVAYIHTPTYRYDYWGQGTQVTVSS
- polyreactivity (PSR sort gate): high polyreactivity

Sequence: QVQLVESGGGLVQAGGSLRLSCAASGLTLGDNAMGWSRQAPGNERELVASITNGGSTNYADSVKGRFTISRDNAKNTVYLQMNSLNPEDTAVYYCAVEWTWRSTAYSGGAFDYWGQGTQVTVSS
- polyreactivity (PSR sort gate): low polyreactivity

Sequence: QVQLVESGGGLVQAGGSLRLSCAASGLTLGSYAMGWYRQAPGKERELVAAISRRSGRTYYADSVKGRFTISRDNAKNTVYLQMNSLKPEDTAVYYCAAEIPYYVDTPGDDYWGQGTQVTVSS
- polyreactivity (PSR sort gate): low polyreactivity

Sequence: QVQLVESGGGLVQAGGSLRLSCAASGLTLKRYAMGWYRQAPGKERELVAAISTRGGSTYYADSVKGRFTISRDNAKNTVYLQMNSLKPEDTAVYYCAAGDYWGQGTQVTVSS
- polyreactivity (PSR sort gate): high polyreactivity

Sequence: QVQLVESGGGLVQAGGSLRLSCAASGLTLRENAMGWYRQAPGKERELVAAITNGGSTYYADSVKGRFTISRDNAKNTVYLQMNSLKPEDTAVYYCAADNLTYVISWDSDYWGQGTQVTVSS
- polyreactivity (PSR sort gate): low polyreactivity

Sequence: QVQLVESGGGLVQAGGSLRLSCAASGLTLRNSAMGWYRQAPGKERELVAAITTGGGRTYYADSVKGRFTISRDNAKNTVYLQMNSLKPEDTAVYYCAKKPSSARYVTIGFDYWGQGTQVTVSS
- polyreactivity (PSR sort gate): low polyreactivity

Sequence: QVQLVESGGGLVQAGGSLRLSCAASGLTLYDYAMGWYRQAPGKERELVADIDFNGGSTSYADSVKGRFTISRDNAKNTVYLQMNSLKPEDTAVYYCNTRDRGDVVTGLDYWGQGTQVTVSS
- polyreactivity (PSR sort gate): low polyreactivity

Sequence: QVQLVESGGGLVQAGGSLRLSCAASGLTLYKYAMGWYRQADGKVRELVATSRSRGTSTYYADSVKGRFTISRDNAKNTVYLQMNSLKPEDTAVYDCAADYLYRWLFAYNGGMDYCGQGTQVTVSS
- polyreactivity (PSR sort gate): high polyreactivity

Sequence: QVQLVESGGGLVQAGGSLRLSCAASGLTLYLYTMGWYRQAPGTERELVASIDSGTSTKYADSVKGRFTISRDNAKNTVYLQMNSLKPEDTAVYYCAAGVWVTRYFGYYYWGQGTQVTVSS
- polyreactivity (PSR sort gate): low polyreactivity

Sequence: QVQLVESGGGLVQAGGSLRLSCAASGLTLYLYTMGWYRQAPRTDRELVASIDSGTSTKYADSVKGRFTISRDHAKYTVYLQMNRLKPVDTAGYDCAAGVWVTRYFGYYYWGQGTQVTVSS
- polyreactivity (PSR sort gate): low polyreactivity

Sequence: QVQLVESGGGLVQAGGSLRLSCAASGLTSDYNAMGWYRQAPGKERELVAAISSGGRTYYADSVKGRFTISRDNAKNTVYLQMNSLKPEDTAVYYCAAEFRVLRGYQYDYWGQGTQVTVSS
- polyreactivity (PSR sort gate): high polyreactivity

Sequence: QVQLVESGGGLVQAGGSLRLSCAASGLTSYDNTMGWYRQAPGKERELVARIRRTGGGTYYADSVKGRFTISRDNAKNTVYLQMNSMKPEDTAVYYCAATITPYDYDYIWFVYSDHDYWGQGTQVTVSS
- polyreactivity (PSR sort gate): low polyreactivity

Sequence: QVQLVESGGGLVQAGGSLRLSCAASGLTVGGNVMGWYRQAPGKERELVAAISRSGDRTYYADSVKGRFTISRDNAKNTVYLQMNSLKPEDTAVYYCAVRVLYRQVFRYDYWGQGTQVTVSS
- polyreactivity (PSR sort gate): high polyreactivity

Sequence: QVQLVESGGGLVQAGGSLRLSCAASGLTYANAKGWYRQAPGKERELVATIRYSGGSTYYADSVKGRFTISRDNAKNTVYLQMNSLKPEDTAVYYCAARRTAGYRSGEYDYWGQGTQVTVSS
- polyreactivity (PSR sort gate): high polyreactivity

Sequence: QVQLVESGGGLVQAGGSLRLSCAASGLTYYTYAMGWYRQAPGKERELVAAITASGGRTYYADSVKGRFTISRDNAKNTVYLQMNSLKPEDTAVYYCAADIRGDTYDYWGQGTQVNVSS
- polyreactivity (PSR sort gate): high polyreactivity

Sequence: QVQLVESGGGLVQAGGSLRLSCAASGMIFGYYVMGWYRQAPGKERELVAAINSGGNTNYADSVKGRFTISRDNAKNTVYLQMNSLKPEDTAVYYCNRSYDSTDIREDYWGQGTQVTVSS
- polyreactivity (PSR sort gate): low polyreactivity

Sequence: QVQLVESGGGLVQAGGSLRLSCAASGMIFKYYVMGWYRKAPGKERELVDDIRCSGGITSYADSVKGRFTISRDNAKNTVYLQMNSLKPEDTAVYYCAVAHSRLRTAYTFSVQRYDYWGQGTQVTVSS
- polyreactivity (PSR sort gate): low polyreactivity

Sequence: QVQLVESGGGLVQAGGSLRLSCAASGMTFAENAMGWYREAPGKERELVAANSASGGSTYYADSVKGRFTISRDNAKNTVYLQMNSLKPEDTAVFYCATRVAFLWPRRDYDYWGQGTQVTVSS
- polyreactivity (PSR sort gate): low polyreactivity

Sequence: QVQLVESGGGLVQAGGSLRLSCAASGMTFHRYAMGWYRQTPGKERELVAAINYSGGRTYYADSVKGRFTISRDNAKNTVYLQMNSLKPEDTAVYYCAAPRASGYYWGQGTQVTVSS
- polyreactivity (PSR sort gate): high polyreactivity

Sequence: QVQLVESGGGLVQAGGSLRLSCAASGNIFAIYAMGWYIQAPGKEREFVAAIDWSVASTYYADSVKGRFTISRDNAKNTVYLQMNSLKPEDTAVYYCAAELYGLKYAYYLSYDYWGQGTQVTVSS
- polyreactivity (PSR sort gate): high polyreactivity

Sequence: QVQLVESGGGLVQAGGSLRLSCAASGNIFAWYAMGWYRQAPGKERELVADISSRGGSTYYADSVKGRFTISRDNAKITVYLQMNSLKPEDSAVYYCAAVWYWTQDYDYWGLGTQVTVSS
- polyreactivity (PSR sort gate): low polyreactivity

Sequence: QVQLVESGGGLVQAGGSLRLSCAASGNIFAWYAMGWYRQAPGKERELVADISSRGGSTYYADSVKGRFTISRDNAKNTVYLQMNRLKPEDTAVYYCAAVWYWTQDYDYWGQGTQVTVSS
- polyreactivity (PSR sort gate): low polyreactivity

Sequence: QVQLVESGGGLVQAGGSLRLSCAASGNIFAYYALGWYRQAPGKEREFVAAIRSSGVSTYYADSVKGRFTISRDNAKNTVYLQMNSLKPEDTAVYYCAADSITGGWLIVSPPYNYTYDYWGQGTQVTVSS
- polyreactivity (PSR sort gate): low polyreactivity

Sequence: QVQLVESGGGLVQAGGSLRLSCAASGNIFDGYAMGWYRQAPGKERELVAAITSSAGSTYYADSVKGRFTISRDNAKNTVYLQMNSLKPEDTAVYYCNKVTKYRPIEGSWGQGTQVTVSS
- polyreactivity (PSR sort gate): high polyreactivity

Sequence: QVQLVESGGGLVQAGGSLRLSCAASGNIFDRYAMGWYRQAPGKERELVAGITWSGGSTYYADSVKGRFTISRDNAKNTVYFQMTSLKPEDTAVYYCGKANYYWGQGTQVTVSS
- polyreactivity (PSR sort gate): low polyreactivity
